Experimental data as given in article doi:10.1101/2023.03.27.534461 (bioRxiv, 2023).

Biological target: the molecule itself
Test: cryo-EM structure; 100 nM unmodified nucleosome with 10 μM Bre1-Bre1-Rad6 fusion protein, 20 mM HEPES pH 7.5, 50 mM NaCl, 1 mM DTT, room temperature 30 min; cross-linked with glutaraldehyde, then Superdex 200; three states resolved

B1: Bre1 591–700 (domain or fragment, yeast, UniProt Q07457 591-700, looked up)
chain: KLNDTEIELKHFKQKASHLESKCEKLHDTLFRGNNKNKGSSDEALVEELANFRTLVYCSLCSKNWKNMAIKTCGHVFCENCCKERLAARMRKCPTCNKAFSSNDLLTVHL
notes: Bre1, yeast E3 ubiquitin ligase, residues 591-700: coiled coil that mediates dimerization and RING domain; In the structure the two copies of Bre1(591-700) stood on one chain of the fusion m1, joined by a (GGS)4 linker; written here as a molecule of its own for the pairs Bre1 with H2A and Bre1 with Bre1; also called Bre1-A; Bre1-B; source: E. coli BL21(DE3)Rosetta2, purified, as part of the …
binding result: binds
